Assay results published in paper PMC4416226 (The FEBS journal, 2014).

Biological target: T1, His-MyoD (1-320 aa) (UniProt P15172 1-320)
T1 sequence (looked up): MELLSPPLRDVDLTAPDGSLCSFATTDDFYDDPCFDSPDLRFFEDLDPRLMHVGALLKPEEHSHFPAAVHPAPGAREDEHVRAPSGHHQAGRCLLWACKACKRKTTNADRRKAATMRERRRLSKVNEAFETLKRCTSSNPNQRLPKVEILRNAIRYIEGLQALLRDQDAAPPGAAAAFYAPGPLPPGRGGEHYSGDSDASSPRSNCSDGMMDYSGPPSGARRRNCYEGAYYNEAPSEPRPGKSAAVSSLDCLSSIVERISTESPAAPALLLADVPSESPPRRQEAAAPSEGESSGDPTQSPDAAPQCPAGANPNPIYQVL
Experiment: far-Western, overlay or dot blot

binding result: binds
B1: GST-MLP-a (1-194 aa) (natural protein, human, UniProt P50461-1 1-194, looked up)
chain: MPNWGGGAKCGACEKTVYHAEEIQCNGRSFHKTCFHCMACRKALDSTTVAAHESEIYCKVCYGRRYGPKGIGYGQGAGCLSTDTGEHLGLQFQQSPKPARSVTTSNPSKFTAKFGESEKCPRCGKSVYAAEKVMGGGKPWHKTCFRCAICGKSLESTNVTDKDGELYCKVCYAKNFGPTGIGFGGLTQQVEKKE
